B1: Dynamin-1-like protein (Mus musculus), Q8K1M6-3 (parent)
chain: MEALIPVINKLQDVFNTVGADIIQLPQIVVVGTQSSGKSSVLESLVGRDLLPRGTGVVTRRPLILQLVHVSPEDKRKTTGEENGVEAEEWGKFLHTKNKLYTDFDEIRQEIENETERISGNNKGVSPEPIHLKVFSPNVVNLTLVDLPGMTKVPVGDQPKDIELQIRELILRFISNPNSIILAVTAANTDMATSEALKISREVDPDGRRTLAVITKLDLMDAGTDAMDVLMGRVIPVKLGIIGVVNRSQLDINNKKSVTDSIRDEYAFLQKKYPSLANRNGTKYLARTLNRLLMHHIRDCLPELKTRINVLAAQYQSLLNSYGEPVDDKSATLLQLITKFATEYCNTIEGTAKYIETSELCGGARICYIFHETFGRTLESVDPLGGLNTIDILTAIRNATGPRPALFVPEVSFELLVKRQIKRLEEPSLRCVELVHEEMQRIIQHCSNYSTQELLRFPKLHDAIVEVVTCLLRKRLPVTNEMVHNLVAIELAYINTKHPDFADACGLMNNNIEEQRRNRLARELPSAGSRDKVPSAGGGIGDGGQEPTTGNWRGMLKTSKAEELLAEEKSKPIPIMPASPQKGHAVNLLDVPVPVARKLSAREQRDCEVIERLIKSYFLIVRKNIQDSVPKAVMHFLVNHVKDTLQSELVGQLYKSSLLDDLLTESEDMAQRRKEAADMLKALQGASQIIAEIRETHLW

Key:
arp3_human ACTR3, P61158 = variants of: B1; conditions: with arp3_human ACTR3, P61158
cof1_human CFL1, P23528 = variants of: B1; conditions: with cof1_human CFL1, P23528
Chain of cof1_human CFL1, P23528 (P23528 whole entry): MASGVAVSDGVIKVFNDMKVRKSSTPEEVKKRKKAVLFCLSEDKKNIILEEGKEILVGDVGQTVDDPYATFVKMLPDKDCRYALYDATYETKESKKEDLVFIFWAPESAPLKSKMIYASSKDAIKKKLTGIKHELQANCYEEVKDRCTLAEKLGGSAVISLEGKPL

| effect of a mutation on the interaction (arp3_human ACTR3, P61158) | effect of a mutation on the interaction (cof1_human CFL1, P23528) | Variant |
| --- | --- | --- |
| increasing interaction strength | increasing interaction strength | S600D |
| decreasing interaction strength | decreasing interaction strength | S600A |

Source: IntAct's records for PubMed 31063459
